Laboratory results taken from paper PMC6275497, “Folding pathway of an Ig domain is conserved on and off the ribosome” (Proceedings of the National Academy of Sciences of the …, 2018).

Assays:
[1] = target: ribosomal protein uL24 (E. coli (endogenous in E. coli KC6), UniProt P60624 1-104); assay: cryo-EM structure; TnaC-stalled I27[L = 35] ribosome-nascent chain complexes purified from E. coli by the His tag; average resolution 3.2 Å, I27 density ~4.5- to 9-Å; rigid-body fit of PDB 1TIT and PDB 4UY8, uL24 β hairpin remodeled; conditions: both partners purified
[2] = target: ribosomal protein uL29 (E. coli (endogenous in E. coli KC6), UniProt P0A7M6 1-63); assay: as above; conditions: both partners purified

B1: N-terminally His-tagged I27-TnaC[L = 35] nascent chain (titin I27 domain, linker, TnaC arrest peptide), stalled on the ribosome (other)
chain: MDMGHHHHHHHHDYDIPTTLEVLFQGPGTLIEVEKPLYGVEVFVGETAHFEIELSEPDVHGQWKLKGQPLAASPDCEIIEDGKKHILILHNCQLGMTGEVSFQAANTKSAANLKVKELSGSGSGSGGPNILHISVTSKWFNIDNKIVDHRP
modifications: nascent chain held as peptidyl-tRNA on the stalled ribosome
notes: N-terminal leader of the construct as printed; it holds the 8X His tag itself; titin I27 Ig domain, 89-residue construct; numbers count on: the I27 domain itself (L1-L89); linker between I27 and the TnaC arrest peptide; TnaC arrest peptide; also called I27[L = 35]; not shown: His8, N-terminal, kept
[1]
  binding result: binds
[2]
  binding result: binds
